Data as given in the supplement of paper PMC9170038.

Legend:
[1] = tested on: MS2 coat protein; test: apparent KD of MS2 coat protein; designed switch direction (-1 OFF switch, 1 ON switch): 1; higher = weaker reporter binding
Outline: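 Apparent KD, taken as the median over clusters for each design, was obtained by curve-fitting normalised cluster fluorescence. Designed RNA switches had been transcribed on Illumina chips by stalled E. coli RNA polymerase and titrated with SNAP-549-labelled MS2 coat protein, doubling from 0.7 or 1.5 nM to 3 µM.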

[2] = tested on: MS2 coat protein; test: apparent KD of MS2 coat protein; higher = weaker reporter binding; settings: Eterna round: R107
Outline: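 Designed RNA switches were transcribed on-chip from Illumina sequencing clusters. SNAP-549-labelled MS2 coat protein was titrated onto them in twofold steps from 0.7 or 1.5 nM to 3 µM in 100 mM Tris-HCl pH 7.5, 80 mM KCl, 4 mM MgCl2, either without or with constant ligand. Apparent KD reflects the per-design median of normalised cluster binding-curve fits.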

[3] = input ligand: microRNA oligo, concentration not stated
[4] = Eterna round: R95, input ligand: FMN 200 uM
[5] = Eterna round: R95, input ligand: microRNA oligo, concentration not stated
[6] = Eterna round: R95, input ligand: none
[7] = input ligand: theophylline 20 uM
[8] = input ligand: tryptophan 2.4 mM
[9] = input ligand: theophylline 2 mM

| Sequence | apparent KD of MS2 coat protein ([1]; input ligand: FMN 200 uM) | apparent KD of MS2 coat protein [1, 3] | apparent KD of MS2 coat protein ([1]; input ligand: none) | apparent KD of MS2 coat protein [1, 4] | apparent KD of MS2 coat protein [1, 5] | apparent KD of MS2 coat protein [1, 6] | other results |
| --- | --- | --- | --- | --- | --- | --- | --- |
| AAAAAACAUGAGGAUCACCCAUGUCGAAAGACAUGAGGAUAUGUGUGGAAACCAUACUAUACAGAAGGCAUAAAAA [SS1 - 1009] (Eterna round: R96, puzzle: Same State 1) | 60.6 nM | 137 nM | 96.8 nM |  |  |  |  |
| AAAAGAAACAUGUACCUGAGUACAUGAAAACAUGAGGAUCACCCAUGUAACAAGUUGGGUGUUUGUCUUAUAAGAAA [JL pocket 5] (Eterna round: R96, puzzle: Sensor for hsa-mir-208a) | 68.7 nM | 238 nM | 231 nM |  |  |  |  |
| AAAAGACAUGAGGAUCACCCAUGUACCAGGUCCACAGGAUAUCAUGCGUGGUUGAAUUCAUGAGAAGGGUGAGACA [Getied] (puzzle: Same State 1) |  |  |  | 48.7 nM | 188 nM | 311 nM |  |
| AAAAGACAUGAGGAUCACCCAUGUAUGAAAAGUACAGGAUAUCACGAGCUAAAGUGCGAGUGAGAAGGGUGAAAAU [Araceesge] (puzzle: Same State 1) |  |  |  | 60.9 nM | 41.9 nM | 37.1 nM |  |
| AAAAGUUGCGGGCAGGAUAUGUAUUAAAAUACAUGAGGAUCACCCAUGUGCGGGUAUAACACCCGACAGAAGGGCCAAACGCGAC [Mat - Same State 2 - Mod of UCT - D96] (puzzle: Same State 2) |  |  |  | 27.4 nM | 178 nM | 333 nM |  |
| AAACAUGAGGAUCACCCAUGUCGAUUAAAACCCUAAUCUACUCAGGAUAUCCGAAUGCGCGUUUCGGAGAAGGGAGAAAUGUGA [Isessoreri] (Eterna round: R96, puzzle: Same State NG 3) | 27 nM | 37.5 nM | 31.7 nM |  |  |  |  |
| AAACGGCCCAACGAAGGGCCACAUGAGGAUCACCCAUGUACAUAGGAUAUCACGCCAACAAAGCGUGAGAAGGGUGAUUAAAAC [Lezaer] (Eterna round: R96, puzzle: Same State NG 3) | 270 nM | 11.6 nM | 163 nM |  |  |  |  |
| AAAGAAACAUGAGGAUCACCCAUGUACCGCGGAAUGUGUGCACAGGAUAUGUACAGCUUUUGCUUACAGAAGGGUGCGCCCGUG [Enorso] (Eterna round: R96, puzzle: Same State NG 3) | 20.8 nM | 38.7 nM | 70 nM |  |  |  |  |
| AAAGAUGGACAUGAGGAUCACCCAUGUGGAAAGUGAACAAGCUUUUGCUCGUGACAAAUGAACAAUCCAAUCCUAAA [mksensor] (puzzle: Sensor for hsa-mir-208a version 2) |  |  |  | 26.3 nM | 24.5 nM | 25 nM |  |
| UUUACAUGAGGAUCACCCAUGUUCCAUGAUACCAGACAUGAAAAUGUCCCUUGGCAGCAUGAAUGAUUCAUAGGAUAAUUAUGGG [Medlanky] |  |  |  |  |  |  | apparent KD of MS2 coat protein ([2]; input ligand: arginine 13.2 mM): 79.7 nM; apparent KD of MS2 coat protein [2, 7]: 116 nM; apparent KD of MS2 coat protein [2, 8]: 72.6 nM |
| UUUGAUUAGAGAAGGAGCGUGAUAUUUAUAUAGUGUGUAUGUACAUGAGGAUCACCCAUGUCACAGGUAGGUCGCUCUGAUAAGG [JR_Nu_ExcArginiB_Sub030] |  |  |  |  |  |  | apparent KD of MS2 coat protein ([2]; input ligand: arginine 13.2 mM): 14.8 nM; apparent KD of MS2 coat protein ([2]; input ligand: none): 13.2 nM; apparent KD of MS2 coat protein [2, 7]: 21.6 nM; apparent KD of MS2 coat protein [2, 9]: 13.2 nM; apparent KD of MS2 coat protein [2, 8]: 16.1 nM |
| UUUUAAGGGAUCGGAGCUGGUAGCAGAGAUACCAGAGUAGUAAUGCUCCCUUGGCAGCUCAGUACAUGAGGAUCACCCAUGUUUU [Exclusion Theophylline A GF26] |  |  |  |  |  |  | apparent KD of MS2 coat protein ([2]; input ligand: arginine 13.2 mM): 16.3 nM; apparent KD of MS2 coat protein ([2]; input ligand: none): 17.6 nM; apparent KD of MS2 coat protein [2, 7]: 21 nM; apparent KD of MS2 coat protein [2, 9]: 25.3 nM; apparent KD of MS2 coat protein [2, 8]: 17.9 nM |
